The target of one assay is T1, PIGF (UniProt P49763-2 21-149, limits assumed).
T1 construct: also called placenta growth factor
T1 sequence (looked up): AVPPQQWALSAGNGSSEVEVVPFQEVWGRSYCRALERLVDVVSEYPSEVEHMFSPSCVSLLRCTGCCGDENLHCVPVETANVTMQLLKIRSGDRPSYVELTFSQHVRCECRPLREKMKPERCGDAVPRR
Put plainly: solid phase binding ELISA on coated PIGF (Example 12.8). As for the experimental part: (§1) Binding to VEGFB, VEGFC, VEGFD and PIGF is assessed via a solid phase binding ELISA. […] Wells are blocked with a casein solution (1% in PBS). […] As positive controls serial dilutions of the appropriate receptors are taken along and detected with horseradish peroxidase (HRP)-conjugated goat anti-human IgG, Fc specific antibody (Jackson Immuno Research Laboratories Inc., West Grove, Pa., USA) and a subsequent enzymatic reaction in the presence of the substrate TMB (3,3′,5,5′-tetramentylbenzidine) (Pierce, Rockford, Ill., USA).
In general terms: ELISA stands for enzyme-linked immunosorbent assay.

In the next assay the target is T2, VEGFB (UniProt P49765-2 22-188, limits assumed).
T2 sequence (looked up): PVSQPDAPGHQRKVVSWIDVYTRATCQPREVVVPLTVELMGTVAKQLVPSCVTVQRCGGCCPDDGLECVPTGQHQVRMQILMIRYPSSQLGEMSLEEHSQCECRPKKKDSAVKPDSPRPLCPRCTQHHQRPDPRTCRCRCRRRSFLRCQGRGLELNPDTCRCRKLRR
Put plainly: binding ELISA on coated VEGFB (Example 12.8), OD 450 nm. As for the experimental part:
as §1

The target of a further assay is T3, VEGFC (UniProt P49767 103-227, limits assumed).
T3 sequence (looked up): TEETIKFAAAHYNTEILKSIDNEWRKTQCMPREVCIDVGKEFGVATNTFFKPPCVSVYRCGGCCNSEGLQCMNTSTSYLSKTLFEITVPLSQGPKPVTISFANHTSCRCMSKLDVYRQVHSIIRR
Put plainly: binding ELISA on coated VEGFC (Example 12.8), OD 450 nm. As for the experimental part: as §1

The target in a further assay is T4, VEGFD (UniProt O43915 93-201, limits assumed).
T4 sequence (looked up): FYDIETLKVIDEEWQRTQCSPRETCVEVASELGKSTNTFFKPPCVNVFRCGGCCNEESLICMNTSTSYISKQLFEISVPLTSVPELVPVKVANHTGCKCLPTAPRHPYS
Put plainly: solid phase binding ELISA on coated VEGF D (Example 12.8). As for the experimental part:
as §1

Assay [1] deals with T5, recombinant human VEGF165 (human, UniProt P15692-4 27-191, biotinylated in the competition assays).
T5 construct: Bought protein; also called hVEGF165; rhVEGF165
Put plainly: ProteOn off-rate assay, periplasmic extract on coated hVEGF165. As for the experimental part:
One additional variant is constructed in which the potential oxidation site at position M30 (CDR1 region, see FIG. 38 indicated as bold italic residue) is removed by introduction of a M30I mutation. […] Off-rates are calculated and compared to the off-rates of the parental VEGFBII5B05.

For assay [2], the target named is T6, human DLL4 expressed on cells (CHO-hDLL4; HEK293-hDLL4) (human, UniProt Q9NR61 27-685). Put plainly: cell-based or functional assay.
Assay [3] concerns the target T6, human DLL4 expressed on cells …. Put plainly: competition FMAT, labelled hNotch1-Fc on CHO-hDLL4 cells.
For assay [4], the target named is T7, recombinant human DLL4 (C-terminally His-tagged extracellular domain, R&D Systems) (human, UniProt Q9NR61 25-522, biotinylated in the competition ELISA).
T7 construct: also called rhDLL4; hDLL4
Put plainly: SPR (Biacore), recombinant human DLL4. As for the experimental part: Kinetic analysis to determine the affinity of the DII4-VHH interaction is performed by Surface Plasmon Resonance (SPR) on a Biacore T100 instrument. […] Purified VHHs or Fab fragment are injected for 2 minutes at different concentrations (between 10 and 300 nM) and allowed to dissociate for 20 min at a flow rate of 45 μl/min. Between sample injections, the surfaces are regenerated with 10 mM glycine pH1.5 and 100 mM HCl. HBS-N (Hepes buffer pH7.4) is used as running buffer. If possible, data are evaluated by fitting a 1:1 interaction model (Langmuir binding) onto the binding curves. The affinity constant KD is calculated from resulting association and dissociation rate constants (kₐ) and […].

Assay [5] deals with T8, human DLL4, full length, overexpressed on cells (human, UniProt Q9NR61 27-685). Put plainly: cell-based or functional assay.
In assay [6] the target is T5, recombinant human VEGF165. Put plainly: AlphaScreen, hVEGF165/hVEGFR2-Fc competition, +5 uM HSA. As for the experimental part: These 2 competition assays are also performed after preincubation of the VHHs with 5 μM human serum albumin.
For orientation: Alpha assays give light when donor and acceptor beads are brought close together.

The target of assay [7] is T9, mouse DLL4, full length, overexpressed on CHO cells (mouse, UniProt Q9JI71 27-686).
T9 construct: whole, on cells; also called mDLL4; CHO-mDLL4
Put plainly: FMAT, hNotch1-Fc on CHO-mDLL4, +25 uM HSA.

Assay [8] has as its target T9, mouse DLL4, full length, overexpressed …. Put plainly: FMAT, hNotch1-Fc on CHO-mDLL4, -HSA.
For assay [9], the target named is T5, recombinant human VEGF165. Put plainly: AlphaScreen, hVEGF165/hVEGFR1-Fc competition, -HSA.
Assay [10] concerns the target T8, human DLL4, full length, overexpressed …. Put plainly: FMAT, hNotch1-Fc on CHO-hDLL4, +25 uM HSA.
For assay [11], the target named is T5, recombinant human VEGF165. Put plainly: AlphaScreen, hVEGF165/hVEGFR2-Fc competition, -HSA.
For assay [12], the target named is T8, human DLL4, full length, overexpressed …. Put plainly: FMAT, hNotch1-Fc on CHO-hDLL4, -HSA.
Assay [13] has as its target VEGF (used to stimulate HUVEC cells) (UniProt P15692-4 27-191, limits assumed). Put plainly: cell-based or functional assay.

T9 sequence (Q9JI71 27-686): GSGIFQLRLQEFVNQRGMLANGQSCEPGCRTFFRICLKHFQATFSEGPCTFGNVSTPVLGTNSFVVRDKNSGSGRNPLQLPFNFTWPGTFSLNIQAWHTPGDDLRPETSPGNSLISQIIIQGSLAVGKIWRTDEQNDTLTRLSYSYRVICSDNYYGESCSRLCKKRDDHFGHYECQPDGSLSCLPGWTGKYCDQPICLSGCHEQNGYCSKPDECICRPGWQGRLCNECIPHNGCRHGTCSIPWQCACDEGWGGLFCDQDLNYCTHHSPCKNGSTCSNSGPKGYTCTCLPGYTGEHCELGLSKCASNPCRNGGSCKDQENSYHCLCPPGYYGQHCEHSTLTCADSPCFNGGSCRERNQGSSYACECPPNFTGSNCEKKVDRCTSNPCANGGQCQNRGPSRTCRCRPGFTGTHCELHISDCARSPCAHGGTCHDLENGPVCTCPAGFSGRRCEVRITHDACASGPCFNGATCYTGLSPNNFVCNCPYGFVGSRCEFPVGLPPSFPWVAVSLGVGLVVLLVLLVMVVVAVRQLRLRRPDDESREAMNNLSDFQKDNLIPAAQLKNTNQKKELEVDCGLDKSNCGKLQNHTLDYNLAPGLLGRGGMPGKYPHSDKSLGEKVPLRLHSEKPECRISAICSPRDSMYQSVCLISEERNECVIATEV
VEGF (used to stimulate HUVEC cells), sequence (P15692 other isoform, or with tags, fused parts or gaps limits assumed): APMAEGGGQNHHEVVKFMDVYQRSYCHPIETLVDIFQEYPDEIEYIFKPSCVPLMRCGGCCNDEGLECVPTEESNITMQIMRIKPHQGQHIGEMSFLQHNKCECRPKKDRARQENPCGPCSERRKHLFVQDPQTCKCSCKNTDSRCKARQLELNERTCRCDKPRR
T5 sequence (P15692 other isoform, or with tags, fused parts or gaps): as the sequence (P15692 other isoform, or with tags, fused parts or gaps limits assumed) above

B1: VEGFBII024 (VHH)
chain: EVQLVESGGGLVQTGDSLRLSCEVSGRTFSSYSMGWFRQAQGKEREFVVAISKGGYKYDSVSLEGRFTISKDNAKNTVYLQINSLKPEDTAVYYCASSRAYGSSRLRLADTYEYWGQGTQVTVSSGGGGSGGGGSGGGGSGGGGSGGGGSGGGGSGGGGSGGGGSEVQLVESGGGLVQAGGSLRLSCTASGSAFKSYRMGWFRRTPGKEDEFVASISWTYGSTFYADSVKGRFTMSRDKAKNAGYLQMNSLKPEDTALYYCAAGAQSDRYNIRSYDYWGQGTQVTVSS
notes: bivalent (heterodimeric) VHH; also called VEGFBII23B04-40GS-86H09
Regarding B1, the binding result with PIGF is given as “no binding (tested: about 5e-7 M)”; with VEGFB it was “no binding (tested: 5e-7 M)”; with VEGFC it was “no binding (tested: 5e-7 M)”; with VEGFD it was “no binding (tested: about 5e-7 M)”.

B2: VEGFBII119G11 (VHH)
VHH: EVQLVESGGGLVQPGGSLRLSCAASGIRFMSMAWYRQAPGKQRELVARISSGGTTAYADSVKGRFTISRDNSKNTVYLQMNSLRAEDTAVYYCNTFSSRPNPWGQGTLVTVSS
notes: Humanization variant of VEGFBII5B05; tested as periplasmic extract
What is called koff is the rate constant with which the complex falls apart. For B2, in assay [1], the “binding level (RU)” value came out at 234 RU and the dissociation rate constant (koff) worked out at 0.0775 s⁻¹.

B3: VEGFBII120E10 (VHH)
VHH: EVQLVESGGGLVQPGGSLRLSCVASGIRFISMAWYRQAPGKHRELVARISSGGTTAYVDSVKGRFTISRDNSKNTVYLQMNSLKAEDTAVYYCNTFSSRPNPWGAGTQVTVSS
notes: M30I variant of VEGFBII5B05; tested as periplasmic extract
In the case of B3, in [1], the “binding level (RU)” value turned out to be 257 RU and the koff is 0.0468 s⁻¹.

B4: DLLBII017 (VHH, not shown: small tags and cut ends)
VHH: EVQLVESGGGLVQPGGSLRLSCAASGRTFSSYAMAWYRQAPGKEREYVAAIRWSGGTAYYADSVQGRFTISRDNAKNTVYLQMNSLRPEDTAVYYCANRAPDTRLAPYEYDHWGQGTLVTVSS
A word on the IC50: it is the concentration that gives 50% inhibition. One may read the Kd as the constant that tells how readily two partners part at equilibrium. By kon is commonly meant the rate constant with which the complex forms. Take B4: the “IC50, DLL4-mediated reporter assay (hDLL4)” value in assay [2] was determined as 126 nM. The molecule further came in with an IC50 in assay [3] of 12.1 nM. In assay [4], the Kd was 0.2 nM, the koff amounted to 8e-05 s⁻¹ and the kon was 370000 M⁻¹ s⁻¹.

B5: VEGFDLLBII014 (bispecific antibody)
chain: EVQLVESGGGLVQTGDSLRLSCEVSGRTFSSYSMGWFRQAQGKEREFVVAISKGGYKYDSVSLEGRFTISKDNAKNTVYLQINSLKPEDTAVYYCASSRAYGSSRLRLADTYEYWGQGTQVTVSSGGGGSGGGSEVQLVESGGGLVQPGGSLRLSCVASGIRFMSMAWYRQAPGKHRELVARISSGGTTAYVDSVKGRFTISRDNSKNTVYLQMNSLKAEDTAVYYCNTFSSRPNPWGAGTQVTVSSGGGGSGGGGSGGGGCGGGGSGGGGSGGGGSGGGGSEVQLVESGGGLVQAGGSLRLSCAASGRTFSSYAMAWYRQAPGKEREYVAAIRWSGGTAYYADSVQGRFTISRDNAKNTVYLQMNSLKPEDTAVYYCANRAPDTRLAPYEYDHWGQGTQVTVSS
modifications: PEGylated at the Cys at position 15 of the 35 Gly-Ser linker
notes: VEGFBII23B04 - 9GS - VEGFBII5B05 - 35GS(Cys15) - DLLBII129B05
As for B5, the “IC50, DLL4 mediated reporter assay, +HSA” value in assay [5] amounted to 122 nM. Also, the “% inh” value in assay [6] was found to be 100%; in [7], 100%; in assay [8], 100%; in assay [9], 94%; in assay [10] it was 100%; in assay [11], 100%. In addition, the “% inh” value in [12] amounted to 100%. Also, the 50% inhibitory concentration (IC50) in [6] came to 0.024 nM; in assay [7] it was 15.4 nM; in [8], 15.4 nM; in assay [9], 0.08 nM; in assay [10], 12.3 nM; in assay [11] it was 0.026 nM. In assay [12], this molecule showed an IC50 of 9.9 nM. Further, the “% inhibition, VEGF HUVEC proliferation assay, -HSA” value in assay [13] was 98%. In addition, the “IC50, VEGF HUVEC proliferation assay, -HSA” value in assay [13] amounted to 0.49 nM.

B6: VEGFDLLBII015 (bispecific antibody)
chain: EVQLVESGGGLVQTGDSLRLSCEVSGRTFSSYSMGWFRQAQGKEREFVVAISKGGYKYDSVSLEGRFTISKDNAKNTVYLQINSLKPEDTAVYYCASSRAYGSSRLRLADTYEYWGQGTQVTVSSGGGGSGGGGSGGGGCGGGGSGGGGSGGGGSGGGGSEVQLVESGGGLVQPGGSLRLSCVASGIRFMSMAWYRQAPGKHRELVARISSGGTTAYVDSVKGRFTISRDNSKNTVYLQMNSLKAEDTAVYYCNTFSSRPNPWGAGTQVTVSSGGGGSGGGGSGGGGSGGGGSGGGGSGGGGSGGGGSEVQLVESGGGLVQAGGSLRLSCAASGRTFSSYAMAWYRQAPGKEREYVAAIRWSGGTAYYADSVQGRFTISRDNAKNTVYLQMNSLKPEDTAVYYCANRAPDTRLAPYEYDHWGQGTQVTVSS
modifications: PEGylated at the Cys at position 15 of the 35 Gly-Ser linker
notes: VEGFBII23B04 - 35GS(Cys15) - VEGFBII5B05 - 35GS - DLLBII129B05
B6: the “IC50, DLL4 mediated reporter assay, +HSA” value in assay [5] is 134 nM. In addition, the “% inh” value worked out at 100% in assay [6]; 100% in assay [7]; 100% in [8]; 96% in [9]; 100% in [10]; 100% in [11]. In [12], the “% inh” value is 100%. For the same molecule, the IC50 in assay [6] worked out at 0.015 nM; in [7], 11.2 nM; in assay [8], 12.2 nM; in [9], 0.04 nM; in [10], 10 nM; in [11], 0.016 nM. Also, the IC50 in [12] came to 9.5 nM. The “% inhibition, VEGF HUVEC proliferation assay, -HSA” value in assay [13] was found to be 109%. Further, the “IC50, VEGF HUVEC proliferation assay, -HSA” value in [13] amounted to 0.49 nM.

B7: VEGFBII025 (VHH)
chain: EVQLVESGGGLVQAGGSLRLSCAASGRTFSNYAMGWFRQAPGKERVLVADISSSGINTYVADAVKGRFTISRDNAKNTVYLQMNSLKPEDTAVYYCAASAWWYSQMARDNYRYWGQGTQVTVSSGGGGSGGGGSGGGGSGGGGSGGGGSGGGGSGGGGSGGGGSEVQLVESGGGLVQTGDSLRLSCEVSGRTFSSYSMGWFRQAQGKEREFVVAISKGGYKYDSVSLEGRFTISKDNAKNTVYLQINSLKPEDTAVYYCASSRAYGSSRLRLADTYEYWGQGTQVTVSS
notes: bivalent (heterodimeric) VHH; also called VEGFBII10E07-40GS-23B04
In the case of B7, the binding result is given as “no binding (tested: about 5e-7 M)” with PIGF, “no binding (tested: 5e-7 M)” with VEGFB, “no binding (tested: 5e-7 M)” with VEGFC and “no binding (tested: about 5e-7 M)” in the assay with VEGFD.
